Laboratory results reported in patent US6406872.

B1: UNC-49B GABA receptor subunit (UNC-49B.1 isoform) (receptor)
chain: QDEDSHINTQLLSSVLDRLTNRTTYDKRLRPRYGEKPVDVGITIHVSSISAVSEVDMDFTLDFYMRQTWQDPRLAFGSLDLGLSKEIDSLTVGVDYLDRLWKPDTFFPNEKKSFFHLATTHNSFLRIEGDGTVYTSQRLTVTATCPMDLKLFPMDSQHCKLEIESYGYETKDIDYYWGKKRTDLEITAVKFDTFQLPQFQPTLYFVNTTKAETSSGKYVRLALEVILVRNMGFYTMNIVIPSILIVTISWVSFWLNREASPARVGLGVTTVLTMTTLITTTNNSMPKVSYVKGLDVFLNFCFVMVFASLLEYAIVSYMNKRLVLRREKRRKAAEQQQRNEMPMFNASPKAANNNADLYFAGHNSSMNPLMEIPENCDCRTIPMMQHPRLVTDGAHTLWPAPFARPKKASKTCCQRWTPAKIDKLSRYGFPLSFSIFNIVYWLYMKYLSLNSSDKIQENDKWQQIH

Assays:
[1] = molecular target: B1; assay: cell-based or functional assay
[2] = molecular target: the molecule itself; assay: cell-based or functional assay

| EC50 (µM) of GABA, two-electrode voltage clamp, Xenopus oocytes co-injected with UNC-49B and UNC-49C RNA [1] | Binder | EC50 (µM) of GABA, two-electrode voltage clamp, Xenopus oocytes injected with UNC-49B.1 mRNA alone [2] |
| --- | --- | --- |
| 108 µM | UNC-49C GABA receptor subunit (receptor) QDEDSHINTQLLSSVLDRLTNRTTYDKRLRPRYGEKPVDVGITIHVSSISAVSEVDMDFTLDFYMRQTWQDPRLAFGSLDLGLSKEIDSLTVGVDYLDRLWKPDTFFPNEKKSFFHLATTHNSFLRIEGDGTVYTSQRLTVTATCPMDLKLFPMDSQHCKLEIESYAYSTAEIEYKWCTSKEPNCSTAVKADANIELSSYKFTKICQKRTLASTSSGTYSRLRVSFIFDRDSGFYFLQIFFPASLVVVLSWISFWINRDSAPSRTLIGTMTVLTETHLMTGTNRRLPPVAYVKAVDVFLGFCYLLVILALIEYACVAYSKKKNEDRRRREKKTEHKPAPPTPDILHDVRLAECTCNAAPTSIIAVIKQSNRFCVSHSHIDIVSRAAFPLVFILFNTLFWLILLYKSKRLPYISEHEGDRCDAPDLH | – |
| – | B1 | 43.7 µM |
